Key:
DND1 RRM12 K197A = molecular target: T1, DND1 RRM12 K197A (human, UniProt Q8IYX4 12-235, K197A); assay: ITC; N = 0.98; ITC: 100 mM potassium phosphate pH 6.6, 1 mM 2-mercaptoethanol, 25 C; NMR: 100 mM potassium phosphate pH 6.6, 1 mM DTT, 298 K (or 20 mM MES pH 6.6, 100 mM NaCl); Supplementary Fig. 3: 25 mM NaCl, 2 mM DTT, pH 6.3, 303 K; conditions: protein: recombinant; tags: N-terminal 6xHis, TEV-cleaved; label: selective 13C-ribose in some structure samples; unlabeled in titrations
T1 sequence: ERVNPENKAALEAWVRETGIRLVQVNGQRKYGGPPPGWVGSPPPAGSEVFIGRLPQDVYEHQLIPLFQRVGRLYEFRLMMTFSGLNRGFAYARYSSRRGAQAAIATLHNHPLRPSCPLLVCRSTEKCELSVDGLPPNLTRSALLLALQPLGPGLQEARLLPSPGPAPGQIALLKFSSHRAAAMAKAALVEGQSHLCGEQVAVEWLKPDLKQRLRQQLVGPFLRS

DND1 RRM12 R98A = molecular target: T2, DND1 RRM12 R98A (human, UniProt Q8IYX4 12-235, R98A); assay: NMR titration; ITC: 100 mM potassium phosphate pH 6.6, 1 mM 2-mercaptoethanol, 25 C; NMR: 100 mM potassium phosphate pH 6.6, 1 mM DTT, 298 K (or 20 mM MES pH 6.6, 100 mM NaCl); Supplementary Fig. 3: 25 mM NaCl, 2 mM DTT, pH 6.3, 303 K; conditions: protein: recombinant; tags: N-terminal 6xHis, TEV-cleaved; label: selective 13C-ribose in some structure samples; unlabeled in titrations
T2 sequence: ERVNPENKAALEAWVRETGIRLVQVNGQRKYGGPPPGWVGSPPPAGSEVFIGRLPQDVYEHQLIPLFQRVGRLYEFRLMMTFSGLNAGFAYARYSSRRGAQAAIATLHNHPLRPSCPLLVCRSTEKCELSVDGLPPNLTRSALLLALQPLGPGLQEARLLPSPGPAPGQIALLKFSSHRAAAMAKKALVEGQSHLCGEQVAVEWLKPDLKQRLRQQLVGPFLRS

DND1 RRM12 M90A = molecular target: T3, DND1 RRM12 M90A (human, UniProt Q8IYX4 12-235, M90A); assay: as above; conditions: protein: recombinant; tags: N-terminal 6xHis, TEV-cleaved; label: selective 13C-ribose in some structure samples; unlabeled in titrations
T3 sequence: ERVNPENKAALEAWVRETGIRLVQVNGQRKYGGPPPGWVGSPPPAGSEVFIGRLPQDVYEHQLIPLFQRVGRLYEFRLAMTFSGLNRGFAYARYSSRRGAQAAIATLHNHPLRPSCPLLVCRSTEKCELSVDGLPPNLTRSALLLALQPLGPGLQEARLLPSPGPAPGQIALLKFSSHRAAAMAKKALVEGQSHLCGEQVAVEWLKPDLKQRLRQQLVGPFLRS

DND1 RRM12 T135A = molecular target: T4, DND1 RRM12 T135A (human, UniProt Q8IYX4 12-235, T135A); assay: NMR titration; binding not reduced; ITC: 100 mM potassium phosphate pH 6.6, 1 mM 2-mercaptoethanol, 25 C; NMR: 100 mM potassium phosphate pH 6.6, 1 mM DTT, 298 K (or 20 mM MES pH 6.6, 100 mM NaCl); Supplementary Fig. 3: 25 mM NaCl, 2 mM DTT, pH 6.3, 303 K; conditions: protein: recombinant; tags: N-terminal 6xHis, TEV-cleaved; label: selective 13C-ribose in some structure samples; unlabeled in titrations
T4 sequence: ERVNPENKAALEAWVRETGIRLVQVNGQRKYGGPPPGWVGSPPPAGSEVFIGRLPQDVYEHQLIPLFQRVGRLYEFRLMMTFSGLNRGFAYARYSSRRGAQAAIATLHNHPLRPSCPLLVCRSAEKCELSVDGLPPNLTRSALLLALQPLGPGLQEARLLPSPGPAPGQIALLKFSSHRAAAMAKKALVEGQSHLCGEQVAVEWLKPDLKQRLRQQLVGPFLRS

[1] = molecular target: T5, DND1 RRM12 (tandem RRMs) WT (human, UniProt Q8IYX4 12-235); assay: ITC; N = 1.04; text and Supplementary Table 2 print 0.68; ITC: 100 mM potassium phosphate pH 6.6, 1 mM 2-mercaptoethanol, 25 C; NMR: 100 mM potassium phosphate pH 6.6, 1 mM DTT, 298 K (or 20 mM MES pH 6.6, 100 mM NaCl); Supplementary Fig. 3: 25 mM NaCl, 2 mM DTT, pH 6.3, 303 K; conditions: protein: recombinant; tags: N-terminal 6xHis, TEV-cleaved; label: selective 13C-ribose in some structure samples; unlabeled in titrations
T5 sequence: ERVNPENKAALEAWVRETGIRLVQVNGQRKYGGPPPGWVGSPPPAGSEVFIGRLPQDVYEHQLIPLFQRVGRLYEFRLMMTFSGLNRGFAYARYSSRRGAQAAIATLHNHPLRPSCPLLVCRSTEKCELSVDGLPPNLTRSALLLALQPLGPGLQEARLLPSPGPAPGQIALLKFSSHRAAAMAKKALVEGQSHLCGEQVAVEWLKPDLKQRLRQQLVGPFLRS

DND1 RRM2 = molecular target: T6, DND1 RRM2 (human, UniProt Q8IYX4 136-227); assay: NMR titration; ITC: 100 mM potassium phosphate pH 6.6, 1 mM 2-mercaptoethanol, 25 C; NMR: 100 mM potassium phosphate pH 6.6, 1 mM DTT, 298 K (or 20 mM MES pH 6.6, 100 mM NaCl); Supplementary Fig. 3: 25 mM NaCl, 2 mM DTT, pH 6.3, 303 K; conditions: protein: recombinant; tags: N-terminal 6xHis, TEV-cleaved
T6 sequence: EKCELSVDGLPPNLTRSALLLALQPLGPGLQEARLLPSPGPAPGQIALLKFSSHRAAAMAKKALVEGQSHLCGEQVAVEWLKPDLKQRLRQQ

DND1 extended RRM1 = molecular target: T7, DND1 extended RRM1 (human, UniProt Q8IYX4 12-139); assay: as above; conditions: protein: recombinant; tags: N-terminal 6xHis, TEV-cleaved
T7 sequence: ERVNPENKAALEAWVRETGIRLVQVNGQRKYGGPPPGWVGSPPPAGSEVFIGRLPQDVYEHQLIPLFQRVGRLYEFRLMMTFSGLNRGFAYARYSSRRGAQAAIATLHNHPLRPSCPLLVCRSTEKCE

[2] = molecular target: T5, DND1 RRM12 (tandem RRMs) WT; assay: NMR titration; highest affinity of the three oligos; ITC: 100 mM potassium phosphate pH 6.6, 1 mM 2-mercaptoethanol, 25 C; NMR: 100 mM potassium phosphate pH 6.6, 1 mM DTT, 298 K (or 20 mM MES pH 6.6, 100 mM NaCl); Supplementary Fig. 3: 25 mM NaCl, 2 mM DTT, pH 6.3, 303 K; conditions: protein: recombinant; tags: N-terminal 6xHis, TEV-cleaved

B1: CUUAUUUG (ssRNA)
RNA: CUUAUUUG
Kd (DND1 RRM12 K197A): 2600 ± 100 nM
binding result (DND1 RRM12 R98A): no binding
binding result (DND1 RRM12 M90A): no binding
binding result (DND1 RRM12 T135A): binds
Kd [1]: 690 ± 30 nM

B2: UUUUUAC (ssRNA)
RNA: UUUUUAC
binding result (DND1 RRM2): no binding
binding result (DND1 extended RRM1): no binding

B3: UUAUUU (ssRNA)
RNA: UUAUUU
binding result (DND1 RRM2): no binding
binding result [2]: binds

B4: UUUUUCC (ssRNA)
RNA: UUUUUCC
binding result (DND1 RRM2): no binding
binding result (DND1 extended RRM1): no binding

Reference: article PMC9537309, “The solution structure of Dead End bound to AU-rich RNA reveals an unusual mode of tandem RRM-RNA recognition required for mRNA regulation”
